Measured values reported in the supplement of paper PMC9170038.

System: MS2 coat protein
Assay: apparent KD of MS2 coat protein; designed switch direction (-1 OFF switch, 1 ON switch): -1; higher = weaker reporter binding
In short: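 RNA switches sharing common flanks were transcribed by stalled E. coli RNA polymerase on Illumina chips. A doubling series of SNAP-549-labelled MS2 coat protein, from 0.7 or 1.5 nM to 3 µM, was applied in Tris-HCl pH 7.5 buffer with KCl, MgCl2, BSA, DTT, tRNA and Tween-20. Each step lasted 0.8–1.5 h at the bottom of the series and 10–20 min at the top. Normalised cluster fluorescence was curve-fitted, giving apparent KD as the per-design median over clusters.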

[1] = Eterna round: R95, input ligand: FMN 200 uM
[2] = Eterna round: R95, input ligand: microRNA oligo, concentration not stated
[3] = Eterna round: R95, input ligand: none
[4] = input ligand: microRNA oligo, concentration not stated

Row | Sequence | apparent KD of MS2 coat protein (input ligand: FMN 200 uM) [µM] | apparent KD of MS2 coat protein (input ligand: none) [µM] | apparent KD of MS2 coat protein [1] [µM] | apparent KD of MS2 coat protein [2] [µM] | apparent KD of MS2 coat protein [3] [µM] | apparent KD of MS2 coat protein [4] [µM]
1 | UGCGGUUGAGGAUAUACGUAGAACUAGGUUCAUGUAAAACUACAUGAGGAUCACCCAUGUAGAAGGCAAUCGCU [Mat - Exclusion 2 - JL Mod - D41] (Eterna round: R97, puzzle: Exclusion 2) | 0.0239 | 0.0203 | – | – | – | –
2 | UGCUAGUCAGGAUAUACGAACAUGUCAAAAGACGUGAAGGGACAUGAGGAUCACCCAUGUAGAAGGGACUAGCU [salish99_ex2_r3_006] (puzzle: Exclusion 2) | – | – | 0.165 | 0.0252 | 0.0271 | –
3 | UGCUAGUGAGGAUAUGCUGGAAUAAAGAUUUGACGUGGCGAACAUGAGGAUCACCCAUGUAGAAGGCACAAUAC [Ususedes] (puzzle: Exclusion 2) | – | – | – | 0.0121 | – | –
4 | UGCUGAGUUGACAGUGGUAACAUGAGGAUCACCCAUGUAUGUUUGUGCUUAAGCGGGUUGUUUCUUGUUCGUCUCUC [Eternabot (L2) Solution 5] (Eterna round: R97, puzzle: Sensor, turn-off variant 1) | 0.262 | 0.349 | – | – | – | –
5 | UGGACACCAGUAGGAUAUGUAGGAUAUGUUGUUGAGGAUCACCCAACAAAUUAAACGACAGAAGGACAGAAGGACUAUUAUCCU [pwkr exNG2 2xFMN 1xF5.1] (Eterna round: R96, puzzle: Exclusion NG 2) | 0.0525 | 0.0608 | – | – | – | 0.0578
6 | UGGCUACCUUGGUGCUCUACAAGCUUUUUGCUCGUUUUAACAUGAGGAUCACCCAUGUCUAGUGGAUCUGAUCGGGC [JL ViennaUCT Isreen mod 1] (puzzle: Sensor v3, turn-off variant 2) | – | – | 0.0621 | 0.139 | 0.0627 | –
7 | UGGGUACUCCAUAGAAGAAACAUGAGGAUCACCCAUGUAGGGCAAGUUUUUUGCUCGUCAUAGGUUGAGGGAUUGGA [JR_SV3TOV1_Sub016] (puzzle: Sensor v3, turn-off variant 1) | – | – | 0.685 | 0.343 | 0.978 | –
8 | UGGUAACAUGAGGAUCACCCAUGUCAGGAUAUCAGGAAGAAGAGAGGAGAGUAGAAGAUGAGAAGGGACUAUAU [Excluse me! 10 - Jieux - Exclusion 1] (puzzle: Exclusion 1) | – | – | 0.0202 | 0.0245 | 0.0275 | –
9 | UGGUAAUCAGUUAGGAUAUCAUCCGGCGUUGUCGGUGAGAAGGAACAUGAGGAUCACCCAUGUAUCGAUUUUAG [BmEX4 B.13] (Eterna round: R97, puzzle: Brourd's mod of Exclusion 4) | 0.0265 | 0.019 | – | – | – | –
10 | UGGUGGAAGCAGGAUAUGCUUGUAUUAUUGAUAGCAGAAGGGCUAACAUGAGGAUCACCCAUGUAAGAGGUGUA [JR_E6_Sub057] (puzzle: Exclusion 6) | – | – | 0.19 | 0.203 | 0.238 | –
11 | UGGUGGAAGCAGGAUAUGCUUGUAUUAUUGAUUGCAGAAGGGCUAACAUGAGGAUCACCCAUGUAAGAGGUGUU [JR_E6_Sub056] (puzzle: Exclusion 6) | – | – | 0.303 | 0.289 | 0.327 | –
12 | UGGUGUGCGAAGGAUAUGUAGGCUAUCAUGUCAAUAGAAGGUUGCACAUGAGGAUCACCCAUGUAAGCCACUUA [Eternabot (L1) Solution 17] (Eterna round: R97, puzzle: Exclusion 6) | 0.0692 | 0.083 | – | – | – | –
13 | UGUACGCGAGGAUAUACAUGAGGAUCACCCAUGUCAUAUGAAAUGUAAUGAGUAGCGGGUAGAAGGCGCUUUUG [Eternabot (L2) Solution 26] (Eterna round: R97, puzzle: Exclusion 3) | 0.0218 | 0.0313 | – | – | – | –
14 | UGUAGUUCAGGAUAUGAUGUUAAAUACAUGAGGAUCACCCAUGUAGAUCCUGAAUUUACAUCAGAAGGGAAUAUUU [JL-ex5-4.56 Brourd mod] (Eterna round: R97, puzzle: Exclusion 5) | 0.0228 | 0.0171 | – | – | – | –
15 | UGUCAGAUGGUAGGAUAUCCAUAUCGAGUGACCCUUUCAUAACAUGAGGAUCACCCAUGUUGGUGGGAGAAGGGCCGUAUGGUG [salish99_ExNG02_R04_026] (Eterna round: R96, puzzle: Exclusion NG 2) | 0.0132 | 0.0155 | – | – | – | 0.0127
16 | UGUCAGAUGGUAGGAUAUCCAUAUCGAGUGACCCUUUCUUAACAUGAGGAUCACCCAUGUCGGUGGGAGAAGGGCCGUAUGGUG [salish99_ExNG02_R04_032] (Eterna round: R96, puzzle: Exclusion NG 2) | 0.0314 | 0.0299 | – | – | – | 0.024
17 | UGUCAGUCAGGAUAUGCAUACGUAGACAUGAGGAUCACCCAUGUGACGUGGGACUGGUGUGUAGAAGGGACGAACA [EX5 #79] (Eterna round: R97, puzzle: Exclusion 5) | 0.0298 | 0.0286 | – | – | – | –
18 | UGUGCGUAUGUGAGGAUAUGCUGGUCCUUGGAUCAGCAGAAGGCACAUGAGGAUCACCCAUGUGGUGUCGUACC [salish99_Bmod_Ex4_002] (puzzle: Brourd's mod of Exclusion 4) | – | – | – | 0.243 | – | –
19 | UGUGCGUAUGUGAGGAUAUGCUGGUCCUUGGAUCGGCAGAAGGCACAUGAGGAUCACCCAUGUGGUGUCGUACC [salish99_Bmod_ex4_075] (puzzle: Brourd's mod of Exclusion 4) | – | – | – | 0.154 | – | –
20 | UGUGCGUAUGUGAGGAUAUGCUGGUCCUUGGAUCGGCAGAAGGCACAUGAGGAUCACCCAUGUGGUGUCGUACU [salish99_Bmod_ex4_083] (puzzle: Brourd's mod of Exclusion 4) | – | – | – | 0.235 | – | –
21 | UGUGCGUAUGUGAGGAUAUGCUGGUCCUUGGAUCGGCAGAAGGCACAUGAGGAUCACCCAUGUGGUGUCGUUCG [salish99_Bmod_ex4_097] (puzzle: Brourd's mod of Exclusion 4) | – | – | – | 0.206 | – | –
22 | UGUGCUUCAGGAUAUACGUGACGUCCGUGAGGACGAAGGUUACAUGAGGAUCACCCAUGUAGAAGGGAAGUACU [Mat - Exclusion 2 - JL Mod - D30] (Eterna round: R97, puzzle: Exclusion 2) | 0.11 | 0.0202 | – | – | – | –
23 | UGUUGUCGCGCAGGAUAUGAGGAUCACCCAUAUAGAGGAUAUGAAAAGAAGGCUCUGAGGAUCACCCAGAAGGGCGGGACAACU [pwkr exNG2 2xF5 2xFMN.23] (Eterna round: R96, puzzle: Exclusion NG 2) | 1.39 | 0.222 | – | – | – | 0.141
